Assay results from patent US20210347867A1.

Target: amyloid peptide (not named; Aβ1-42, AβpE3-42 and 4-42 were tested)
Experiment: SPR (Biacore); reference not named (variants were made to raise the affinity of RHS71/RKA)

B1: humanized NT4X-167 RHS71/RKH (antibody, V domains shown)
VH: QVQLQESGPGLVKPSETLSLTCTVSGFSLSSYGIHWIRQPPGKGLEWIGVMWSGGITNYYPSLKSRVTISRDTSKNQVSLKLSSVTAADTAVYYCARGSRYALDYWGQGTLVTVSS
VL: DIQMTQSPSSLSASVGDRVTITCRASQDISNYLNWYQQKPGKAPKLLIYYTSRLHSGVPSRFSGSGSGTDFTLTISSLQPEDFATYYCQQGHTLPPTFGGGTKLEIK
fold improvement on the Biacore: 2 fold
